Experimental data published in paper PMC3909815 (Molecular imaging and biology : MIB : the official …, 2012).

Key:
mice = experiment: Toxicity of pHe marker in mice; assay type: in vivo, mouse; settings: 7 mmol/kg i.p.
PC-3 tumour = experiment: Biodistribution/pHe modulation study; assay type: in vivo, mouse; settings: PC-3, 24 h p.i., bicarbonate per os 5 days; P=0.053; 95% CI 0%, 51%
LNCaP tumour = experiment: Biodistribution/pHe modulation study; assay type: in vivo, mouse; settings: 24 h p.i., bicarbonate per os 5 days, P=0.020, 95% CI 10%, 42%
[1] = Radiochemical purity of the preparation over time; assay type: physicochemical; settings: measured ≈24 h p.i., preparation used for SPECT imaging
[2] = 60 min p.i., i.v., mean±SD of 2 independent studies
[3] = Biodistribution of 99mTc-AH114567 in tumoured mice

Row | Compound | toxicity for mice (mice) | tumour uptake ratio (uptake difference with bicarbonate relative to standard) (PC-3 tumour) | tumour uptake ratio (uptake difference with bicarbonate relative to standard) (LNCaP tumour) | radiochemical purity (RCP) of the preparation [1] | integrated radio-HPLC signal of the parent compound in rat plasma [2] | lung/blood uptake ratio at 4 h p.i. ([3]; 4 h p.i.) | lung/blood uptake ratio at 24 h p.i. ([3]; 24 h p.i.) | kidney uptake at 24 h p.i. ([3]; 24 h p.i., C57BL/6 mice) | blood uptake at 24 h p.i. ([3]; 24 h p.i., all three models) | lung/blood uptake ratio, initial ([3]; initially) | uptake in liver ([3]; over the first 24 h p.i., liver+gall bladder, LLC tumoured C57BL/6 mice) | skin uptake ([3]; range over time points) | uptake in bone ([3]; typically)
1 | CCOP(=O)(OCC)C1(C)CCCN1 (stereo not shown) | toxic |  |  |  |  |  |  |  |  |  |  |  | 
2 | ACEQNPIY{WARYADWLFTTPLLLLDLALLV}DADEGTG [99mTc-AH114567] |  | 29% | 29% | ≥ 85% | 86±6% | ≈ 2 | ca. 1 | ~3 % ID | 1 to 2 % ID/g | ≈ 3 | 25 to 15 % ID | 3 to 8 % ID | 2 to 3 % ID
